We go through eleven molecules from patent US20110118131A1 (published 2011).

The Kd is the free concentration of one partner at which half of the binding sites on the other are occupied at equilibrium, for simple one-to-one binding. A higher Kd goes with weaker binding.

In one assay the target is biotinylated Ep-Cam (UniProt P16422). Description: DELFIA competition, negative control well, biotinylated Ep-Cam, plate-coated parental ING-1 IgG as competitor.
For assay [1], the target named is T1, IL-1β (UniProt P01584 117-269).
T1 construct: Antigen of XPA23
Description: Biacore, Fab periplasmic extract; -1 = no binding by the table's footnote.

Assay [2] has as its target IL-1β (UniProt P01584 117-269). Description: Biacore kinetic titration, IL-1β amine coupled to CM5 chip, 25 C. As for the experimental part:
In an exemplary method, an antigen such as IL-1β is amine coupled to a CM5 sensor chip. Each sample (e.g., from lowest to highest concentration) may be injected for 240 seconds at a flow rate of 30 µl/min at a selected temperature (e.g., 25° C.). Sample are allowed to dissociate for 30 seconds except the highest concentration which may be permitted 300 seconds to dissociate. The assay is run at 25° C.
Biaevaluation software (e.g., Biacore 2000 evaluation software) is used to calculate dissociation rates of individual samples and the relative amount of sample bound to each test surface. The data is fit to an appropriate kinetic model (e.g., the kinetic titration model).

The target of assay [3] is T2, Ep-CAM (UniProt P16422 24-265).
T2 chain: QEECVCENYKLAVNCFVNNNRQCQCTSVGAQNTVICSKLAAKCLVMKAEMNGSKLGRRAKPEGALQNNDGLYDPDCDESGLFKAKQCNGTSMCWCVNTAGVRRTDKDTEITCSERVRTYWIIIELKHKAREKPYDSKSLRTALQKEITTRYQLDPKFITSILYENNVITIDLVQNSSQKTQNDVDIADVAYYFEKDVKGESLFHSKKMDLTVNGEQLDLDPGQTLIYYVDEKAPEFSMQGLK
Description: Biacore SPR; Fig. 15C. Background: Surface plasmon resonance follows binding to a sensor surface in real time, without labels.

Assay [4] deals with T2, Ep-CAM. Kind of assay: Biacore SPR; Fig. 15B.

Changes are numbered by the printed parent chain. Numbers in names are those of the source. Where “and” joins values, the source holds several entries; their conditions need not be identical. Equal values may be shown once.

Consider negative control (wells E12-H12), for which, in the assay with biotinylated Ep-Cam, the Percentage of inhibition was -0.4% and 0.1% and 0.3%.

B1: XPA23 heavy chain S105L (Fab, V domains shown)
VH: EVQLLESGGGLVQPGGSLRLSCAASGFTFSKYFMFWVRQAPGKGLEWVSVISPSGGMTRYADSVKGRFTISRDNSKNTLYLQMNSLRAEDTAVYYCARVGYGGNLDYWGQGTLVTVSS
VL: DIQMTQSPSSVSASVGDRLTIICRASQDINRWLAWYQQTPGNAPKLLIHSATSLQSGVPSRFSGSGSGTDFTLTINSLQPEDFATYYCQQADSFPLTFGGGTKVEIK
notes: Fab, periplasmic extract; also called C5A S105L
With B1, the binding result in the assay with IL-1β [1] is reported as “no binding”.

B2: XPA23 (IL-1 antibody) (antibody, V domains shown)
VH: B1 VH with L105S
VL: B1 VL
notes: also called cA5; C5A
As to B2, the Kd with IL-1β [2] worked out at 46 nM.

B3: XPA23 heavy chain V50P (Fab, V domains shown)
VH: B1 VH with V50P, L105S
VL: B1 VL
notes: Fab, periplasmic extract; also called C5A V50P
As to B3, in the assay with IL-1β [1], the binding result is given as “no binding”.

B4: XPA23 heavy chain V99L (Fab, V domains shown)
VH: B1 VH with V99L, L105S
VL: B1 VL
notes: Fab, periplasmic extract; also called C5A V99L
Take B4: the binding result with IL-1β [1] is listed as “no binding”.

B5: XPA23 heavy chain V99P (Fab, V domains shown)
VH: B1 VH with V99P, L105S
VL: B1 VL
notes: Fab, periplasmic extract; also called C5A V99P
For B5, the binding result with IL-1β [1] is “no binding”.

B6: XPA23 heavy chain Y32A (Fab, V domains shown)
VH: B1 VH with Y32A, L105S
VL: B1 VL
notes: Fab, periplasmic extract; also called C5A Y32A
B6: the binding result with IL-1β [1] is “no binding”.

B7: XPA23 heavy chain Y101G (Fab, V domains shown)
VH: B1 VH with Y101G, L105S
VL: B1 VL
notes: Fab, periplasmic extract; also called C5A Y101G
For B7, the binding result with IL-1β [1] is recorded as “no binding”.

B8: modified XPA23 Y208L mutant (antibody, V domains shown)
VH: B1 VH with Y101L, L105S
VL: B1 VL
In the assay with IL-1β [2], B8 gave an equilibrium dissociation constant (Kd) of 16.2 nM.

B9: modified ING-1 IgG with a 102G substitution (antibody, V domains shown)
VH: QIQLVQSGPELKKPGETVKISCKASGYTFTKYGMNWVKQAPGKGLKWMGWINTYTEEPTYGDDFKGRFAFSLETSASTANLQINNLKSEDTATYFCARFGSGVDYWGQGTSVTVSS
VL: QIVMTQAAFSNPVTLGTSGSISCRSSKSLLHSNGITYLYWYLQKPGQSPQLLIYQMSNLASGVPDRFSSSGSGTDFTLRISRVEAEDVGVYYCAQNLELPRTFGGGTKLEMKR
In turn, B9 came in with an equilibrium dissociation constant (Kd) with Ep-CAM [3] of 0.6 nM.

B10: modified ING-1 IgG with an A102F substitution (antibody, V domains shown)
VH: B9 VH with G102F
VL: B9 VL
In turn, B10 displayed a Kd in the assay with Ep-CAM [4] of 0.9 nM.
